The results in this text go back to publication doi:10.1101/2021.08.09.455701 (bioRxiv, 2021).

In data set [1] the target is RNase J (His-tagged, wild type) (Helicobacter pylori) (UniProt P56185). In words: AUC.
Data set [2] concerns the target RNase J D185A (His-tagged) (Helicobacter pylori) (UniProt P56185). In words: AUC.
Data set [3] has as its target RNase J K649A (His-tagged) (Helicobacter pylori) (UniProt P56185). In words: AUC.
For data set [4], the target named is RNase J K649Q (His-tagged) (Helicobacter pylori) (UniProt P56185). The experiment in a line: AUC.
The data set “crystal structure” concerns the molecule itself. In words: crystal structure.

The term stoichiometry N denotes a count of units in the complex or per binding partner. As to “RNase J (His-tagged, wild type) (from UniProt P56185 1-689) (enzyme)”, in data set [1], the percent of the protein as dimer amounted to 40%, the percent of the protein as monomer stood at 60% and the stoichiometry N turned out to be 2.

On to “RNase J D185A (His-tagged) (from UniProt P56185 1-689) (enzyme)”, for which the stoichiometry N in data set [2] was 2.

Molecule “RNase J K649A (His-tagged) (from UniProt P56185 1-689) (enzyme)” gave a stoichiometry N in data set [3] of 2.

In turn, “RNase J K649Q (His-tagged) (from UniProt P56185 1-689) (enzyme)” yielded a stoichiometry N in data set [4] of 2.

Turning to “RhpA (His-tagged) (from UniProt O25029 1-492) (enzyme)”, the stoichiometry N in data set [1] was 1 RNase J:RhpA.

B1: RNase J residues 139-691 (crystallised construct) (domain or fragment, H. pylori strain 26695, UniProt P56185 137-689, looked up)
chain: SKASVKITPLGGLGEIGGNMMVIETPKSAIVIDAGMSFPKEGLFGVDILIPDFSYLHQIKDKIAGIIITHAHEDHIGATPYLFKELQFPLYGTPLSLGLIGSKFDEHGLKKYRSYFKIVEKRCPISVGEFIIEWIHITHSIIDSSALAIQTKAGTIIHTGDFKIDHTPVDNLPTDLYRLAHYGEKGVMLLLSDSTNSHKSGTTPSESTIAPAFDTLFKEAQGRVIMSTFSSNIHRVYQAIQYGIKYNRKIAVIGRSMEKNLDIARELGYIHLPYQSFIEANEVAKYPDNEILIVTTGSQGETMSALYRMATDEHRHISIKPNDLVIISAKAIPGNEASVSAVLNFLIKKEAKVAYQEFDNIHVSGHAAQEEQKLMLRLIKPKFFLPVHGEYNHVARHKQTAISCGVPEKNIYLMEDGDQVEVGPAFIKKVGTIKSGKSYVDNQSNLSIDTSIVQQREEVASAGVFVATIFVNKNKQALLESSQFSSLGLVGFKDEKPLIKEIQGGLEVLLKSSNAEILNNPKKLEDHTRNFIRKALFKKFRKYPAIICHAHSF
Consider B1, for which, in “crystal structure”, the binding result was “binds”.
